Measurements from patent publication US20200239586A1 (LA TROBE UNIVERSITY, published 2020).
Values belong to the binder of their own block, whether it stands above or below them.

Tests used:
[1] = molecular target: phage expressed hFn14 mutant P59A (human, UniProt Q9NP84 28-77); assay: phage ELISA (Method 2), antibody on plate, phage dilution 1/X on the x axis
Text: (§1) For mutants P59A and F63A, binding was detected using HRP-conjugated anti-M13-phage polyclonal IgG and TMB substrate. For all other mutants binding was detected using Biotin-conjugated anti-M13-phage monoclonal antibody followed by HRP-conjugated Streptavidin and TMB substrate. Optical density at 450 nm was quantified using a Spectramax spectrophotometer. Error bars for each dilution represent the standard deviation of duplicate assays. FIG. 27A wild type Fn14, FIG. 27B W42A, FIG. 27C S54A, FIG. 27D A57G, FIG. 27E P59A, FIG. 27F S61A, FIG. 27G F63A, FIG. 27H L65A. In all cases error bars represent the standard deviation. X axis=dilution of phage. Methods according to Epitope mapping using phage expressed Fn14—Method 2
(§2) The wells of Maxisorp immunoplates (Nunc) were coated overnight at 4° C. with the target monoclonal antibodies or recombinant Tweak-Fc at a concentration of 1.5 μg/ml in PBS. mAb 5G8 was used as a negative control for ELISA plates coated with tested antibodies. […] 10-fold serial dilutions of phage were made using PBS solution and phage dilutions were added to the coated, blocked ELISA plates for 1 hour, shaking at room temperature. Phage was subsequently removed from the wells and the ELISA plates were washed three times with PBS/0.05% Tween 20.
(§3) Method A: HRP-conjugated anti-M13-phage antibody (GE Healthcare) at a 1/5000 dilution in PBS was then added to the wells of the ELISA plates for 1 hour, shaking at room temperature. The antibody solution was then removed from the wells and the ELISA plates were washed four times with PBS/0.05% Tween 20. Method B: Biotin-conjugated anti-M13-phage antibody (GE Healthcare) diluted in PBS was then added to the wells of the ELISA plates for 1 hour shaking at room temperature. The antibody solution was then removed from the wells and the ELISA plates were washed three times with PBS/0.05% Tween 20. HRP-conjugated Streptavidin diluted in PBS was then added to the wells of the ELISA plates for 1 hour, shaking at room temperature. The solution was then removed from the wells and the ELISA plates were washed three times with PBS/0.05% Tween 20. ELISAs were developed using TMB substrate and the reaction was stopped using 2 M […] solution.

[2] = molecular target: phage expressed hFn14 mutant W42A (human, UniProt Q9NP84 28-77); assay: as above
Text: as §1, §2, §3

[3] = molecular target: phage expressed hFn14 mutant S61A (human, UniProt Q9NP84 28-77); assay: as above
Text: as §1, §2, §3

[4] = molecular target: phage expressed hFn14 mutant A57G (human, UniProt Q9NP84 28-77); assay: as above
Text: as §1, §2, §3

[5] = molecular target: phage expressed hFn14 mutant H60A (human, UniProt Q9NP84 28-77); assay: phage ELISA (Method 2): antibody coated on the plate, 10-fold dilutions of phage displaying hFn14 H60A; biotin anti-M13 antibody, streptavidin-HRP, TMB, OD 450 nm; x axis = dilution of phage
Procedure: ELISAs showing the reactivity of mutant H60A and H60K hFn14 phage constructs with the anti-Fn14 monoclonal antibodies CRCBT-06-001, CRCBT-06-002, CRCBT-06-004 compared to ITEM-1 and ITEM-4. ITEM-2 was assessed on H60K. Binding was detected using Biotin-conjugated anti-M13-phage monoclonal antibody followed by HRP-conjugated Streptavidin and TMB substrate. Optical density at 450 nm was quantified using a Spectramax spectrophotometer. Error bars for each dilution represent the standard deviation of duplicate assays. X axis=dilution of phage. Methods according to Epitope mapping using phage expressed Fn14—Method 2.
as §2
Method A: HRP-conjugated anti-M13-phage antibody (GE Healthcare) at a 1/5000 dilution in PBS was then added to the wells of the ELISA plates for 1 hour, shaking at room temperature. […]

[6] = molecular target: phage-displayed hFn14 mutant L77M (human, UniProt Q9NP84 28-76); assay: phage ELISA, antibody on plate
[7] = molecular target: phage-displayed hFn14 mutant A34S (human, UniProt Q9NP84 28-77); assay: phage ELISA, antibody on plate
[8] = molecular target: phage-displayed hFn14 mutant R56P (human, UniProt Q9NP84 28-77); assay: phage ELISA, antibody on plate
[9] = molecular target: phage-displayed hFn14 mutant R38S (human, UniProt Q9NP84 28-77); assay: phage ELISA, antibody on plate
[10] = molecular target: phage-displayed hFn14 mutant T33N (human, UniProt Q9NP84 28-77); assay: phage ELISA, antibody on plate
Chain of phage-displayed hFn14 mutant T33N (Q9NP84 28-77 T33N): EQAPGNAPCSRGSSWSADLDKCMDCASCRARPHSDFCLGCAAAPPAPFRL

Chain of phage expressed hFn14 mutant H60A (Q9NP84 28-77 H60A): as the sequence (Q9NP84 28-77 T33N) above, with N6T, H33A counted along it
Chain of phage expressed hFn14 mutant S61A (Q9NP84 28-77 S61A): as the sequence (Q9NP84 28-77 T33N) above, with N6T, S34A counted along it
Chain of phage expressed hFn14 mutant W42A (Q9NP84 28-77 W42A): as the sequence (Q9NP84 28-77 T33N) above, with N6T, W15A counted along it
Chain of phage expressed hFn14 mutant P59A (Q9NP84 28-77 P59A): as the sequence (Q9NP84 28-77 T33N) above, with N6T, P32A counted along it
Chain of phage expressed hFn14 mutant A57G (Q9NP84 28-77 A57G): as the sequence (Q9NP84 28-77 T33N) above, with N6T, A30G counted along it
Chain of phage-displayed hFn14 mutant A34S (Q9NP84 28-77 A34S): as the sequence (Q9NP84 28-77 T33N) above, with N6T, A7S counted along it
Chain of phage-displayed hFn14 mutant R56P (Q9NP84 28-77 R56P): as the sequence (Q9NP84 28-77 T33N) above, with N6T, R29P counted along it
Chain of phage-displayed hFn14 mutant L77M (Q9NP84 28-77 L77M): as the sequence (Q9NP84 28-77 T33N) above, with N6T, L50M counted along it
Chain of phage-displayed hFn14 mutant R38S (Q9NP84 28-77 R38S): as the sequence (Q9NP84 28-77 T33N) above, with N6T, R11S counted along it

- binding result [1]: binds
- binding result [2]: binds
- binding result [3]: binds
- binding result [4]: binds
- binding result [5]: binds
B1: CRCBT-06-001 (antibody, IgG2b, V domains shown)
VH: QVQLQQSGGGLVQPGGSMKLSCIASGFTFSSYWMSWVRQSPEKGLEWVAEIRSKSDNYATHYAESVKGKFTISRDDSKSRFFLQMNNLRAEDTGIYYCSSTYADYFHYWGQGTDLTVSS
VL: DIVMTQTPASLAVSLGQRATISCRASQSVSTSTYSYMHWYQQKPGQPPKLLIKYASSLESGVPARFSGSGSGTDFTLNIHPVEEDDTATYYCQHSWEIPYTFGGGTKLEIKR

- binding result [1]: binds
- binding result [2]: binds
- binding result [3]: binds
- binding result [4]: binds
- binding result [6]: binds
- binding result [7]: binds
- binding result [8]: binds
- binding result [9]: binds
- binding result [10]: binds
- binding result [5]: binds
B2: CRCBT-06-002 (antibody, IgG1, V domains shown)
VH: EVKLQQSGGGLVQPGGSMKLSCVASGFTFSYYWMNWVRQSPEQGLEWIAEIRLQSNDYPTHYAESVKGRFTISRDDSKNSVYLQMNNLRPEDTGIYYCACRYADYFDHWGQGTTLTVSS
VL: DTVLTQSPASLVVSLGQRATISCRASQSVSTSDYSYIHWYQQKPGQPPKFLIKYASNRDSGVPARFSGSGSGTDFTLNIHPVEEDDTAIYYCQHSWEIPPTFGAGTKLELQR
